The test system of series [1] is T1, C=COC(=O)/C=C/c1ccc(O)c(OC)c1.
T1 construct: secreted, over-expressed in low-background M. thermophila C1 host
Kind of series: transesterification rate by HPLC, nonlinear Michaelis-Menten fit. The series is classed as biochemical, Thermothelomyces thermophilus. To be noted: acyl donor, 200 mM prenol, n-hexane:t-butanol:100 mM MOPS-NaOH pH 6.0 19.8:74.7:5.5 v/v/v microemulsion, 40 °C, 8 h, error = SE. An excerpt: transesterification rate by HPLC, nonlinear Michaelis-Menten fit on FaeA2

Substrate in series [2]: C=COC(=O)/C=C/c1ccc(O)c(OC)c1
The series is described as above. In kind it is biochemical, Thermothelomyces thermophilus. To be noted: acyl donor, 200 mM prenol, n-hexane:t-butanol:100 mM MOPS-NaOH pH 6.0 53.4:43.4:3.2 v/v/v microemulsion, 40 °C, 8 h, error = SE. An excerpt: transesterification rate by HPLC, nonlinear Michaelis-Menten fit on MtFae1a

The values below come from publication PMC5380708, “Optimized synthesis of novel prenyl ferulate performed by feruloyl esterases from Myceliophthora thermophila in microemulsions” (Applied Microbiology and Biotechnology, 2017).

In the case of FaeA2 (Thermothelomyces thermophilus), in series [1], the Km is listed as 46.5 (18.1) mM.

B1: MtFae1a (Thermothelomyces thermophilus ATCC 42464) (protein)
chain: ASLQEVTEFGDNPTNIQMYIYVPDQLDTNPPVIVALHPCGGSAQQWFSGTQLPSYADDNGFILIYPSTPHMSNCWDIQNPDTLTHGQGGDALGIVSMVNYTLDKHSGDSSRVYAMGFSSGGMMTNQLAGSYPDVFEAGAVYSGVAFGCAAGAESATPFSPNQTCAQGLQKTAQEWGDFVRNAYAGYTGRRPRMQIFHGLEDTLVRPQCAEEALKQWSNVLGVELTQEVSGVPSPGWTQKIYGDGTQLQGFFGQGIGHQSTVNEQQLLQWFGLI
notes: secreted from Pichia pastoris X33, glycosylated
For B1, the Km in series [2] is reported as 81.2 (22.3) mM.
